According to paper PMC10773898, “Evidence of DISC1 as an arsenic binding protein and implications regarding its role as a translational activator” (Frontiers in Molecular Biosciences, 2023):

Target: the molecule itself
Assay: SEC; HiLoad 26/600 Superdex 200 pg; 50 mM Tris-HCl, 10 mM NaCl, pH 8.0; self-association of the purified construct

| Protein | stoichiometry N | binding result |
| --- | --- | --- |
| DISC1 C-terminal construct (598-854), WT (domain or fragment, human, UniProt Q9NRI5-1 598-854, looked up, Disrupted-in-schizophrenia-1 (DISC1), human, residues 598-854, with W602F and W752F so that W691 is the single tryptophan; In pET28b(+) as His-tag fusion; also called DISC1 598-854; C-terminal WT construct; source: E. coli BL21 (DE3), purified (Ni-NTA, SEC)) GNHFFTAKDLTEEIRSLTSEREGLEGLLSKLLVLSSRNVKKLGSVKEDYNRLRREVEHQETAYETSVKENTMKYMETLKNKLCSCKCPLLGKVWEADLEACRLLIQSLQLQEARGSLSVEDERQMDDLEGAAPPIPPRLHSEDKRKTPLKVLEEFKTHLIPSLHCAGGEQKEESYILSAELGEKCEDIGKKLLYLEDQLHTAIHSHDEDLIQSLRRELQMVKETLQAMILQLQPAKEAGEREAAASCMTAGVHEAQA | 4 |  |
| DISC1 598-854 C680S/C698S/C762S/C782S/C844S (domain or fragment, human, UniProt Q9NRI5-1 598-854, looked up, DISC1, human, residues 598-854; source: E. coli BL21 (DE3), purified (Ni-NTA, SEC)) GNHFFTAKDLTEEIRSLTSEREGLEGLLSKLLVLSSRNVKKLGSVKEDYNRLRREVEHQETAYETSVKENTMKYMETLKNKLSSCKCPLLGKVWEADLEASRLLIQSLQLQEARGSLSVEDERQMDDLEGAAPPIPPRLHSEDKRKTPLKVLEEFKTHLIPSLHSAGGEQKEESYILSAELGEKSEDIGKKLLYLEDQLHTAIHSHDEDLIQSLRRELQMVKETLQAMILQLQPAKEAGEREAAASSMTAGVHEAQA |  | binds |
| DISC1 598-854 C680S/C684S/C698S/C762S/C782S/C844S (domain or fragment, human, UniProt Q9NRI5-1 598-854, looked up, DISC1, human, residues 598-854; source: E. coli BL21 (DE3), purified (Ni-NTA, SEC)) GNHFFTAKDLTEEIRSLTSEREGLEGLLSKLLVLSSRNVKKLGSVKEDYNRLRREVEHQETAYETSVKENTMKYMETLKNKLSSCKSPLLGKVWEADLEASRLLIQSLQLQEARGSLSVEDERQMDDLEGAAPPIPPRLHSEDKRKTPLKVLEEFKTHLIPSLHSAGGEQKEESYILSAELGEKSEDIGKKLLYLEDQLHTAIHSHDEDLIQSLRRELQMVKETLQAMILQLQPAKEAGEREAAASSMTAGVHEAQA |  | binds |
| DISC1 598-854 C682S/C698S/C762S/C782S/C844S (domain or fragment, human, UniProt Q9NRI5-1 598-854, looked up, DISC1, human, residues 598-854; source: E. coli BL21 (DE3), purified (Ni-NTA, SEC)) GNHFFTAKDLTEEIRSLTSEREGLEGLLSKLLVLSSRNVKKLGSVKEDYNRLRREVEHQETAYETSVKENTMKYMETLKNKLCSSKCPLLGKVWEADLEASRLLIQSLQLQEARGSLSVEDERQMDDLEGAAPPIPPRLHSEDKRKTPLKVLEEFKTHLIPSLHSAGGEQKEESYILSAELGEKSEDIGKKLLYLEDQLHTAIHSHDEDLIQSLRRELQMVKETLQAMILQLQPAKEAGEREAAASSMTAGVHEAQA |  | binds |
| DISC1 598-854 C680S/C682S/C698S/C762S/C782S/C844S (domain or fragment, human, UniProt Q9NRI5-1 598-854, looked up, DISC1, human, residues 598-854; source: E. coli BL21 (DE3), purified (Ni-NTA, SEC)) GNHFFTAKDLTEEIRSLTSEREGLEGLLSKLLVLSSRNVKKLGSVKEDYNRLRREVEHQETAYETSVKENTMKYMETLKNKLSSSKCPLLGKVWEADLEASRLLIQSLQLQEARGSLSVEDERQMDDLEGAAPPIPPRLHSEDKRKTPLKVLEEFKTHLIPSLHSAGGEQKEESYILSAELGEKSEDIGKKLLYLEDQLHTAIHSHDEDLIQSLRRELQMVKETLQAMILQLQPAKEAGEREAAASSMTAGVHEAQA |  | binds |
| DISC1 598-854 C680S/C682S/C684S/C698S/C762S/C782S/C844S (domain or fragment, human, UniProt Q9NRI5-1 598-854, looked up, DISC1, human, residues 598-854, all cysteines mutated to serine; also called C680S/C6802S/C684S*; C680S/C684S/C682S*; source: E. coli BL21 (DE3), purified (Ni-NTA, SEC)) GNHFFTAKDLTEEIRSLTSEREGLEGLLSKLLVLSSRNVKKLGSVKEDYNRLRREVEHQETAYETSVKENTMKYMETLKNKLSSSKSPLLGKVWEADLEASRLLIQSLQLQEARGSLSVEDERQMDDLEGAAPPIPPRLHSEDKRKTPLKVLEEFKTHLIPSLHSAGGEQKEESYILSAELGEKSEDIGKKLLYLEDQLHTAIHSHDEDLIQSLRRELQMVKETLQAMILQLQPAKEAGEREAAASSMTAGVHEAQA |  | binds |
| DISC1 598-854 C682S/C684S/C698S/C762S/C782S/C844S (domain or fragment, human, UniProt Q9NRI5-1 598-854, looked up, DISC1, human, residues 598-854; source: E. coli BL21 (DE3), purified (Ni-NTA, SEC)) GNHFFTAKDLTEEIRSLTSEREGLEGLLSKLLVLSSRNVKKLGSVKEDYNRLRREVEHQETAYETSVKENTMKYMETLKNKLCSSKSPLLGKVWEADLEASRLLIQSLQLQEARGSLSVEDERQMDDLEGAAPPIPPRLHSEDKRKTPLKVLEEFKTHLIPSLHSAGGEQKEESYILSAELGEKSEDIGKKLLYLEDQLHTAIHSHDEDLIQSLRRELQMVKETLQAMILQLQPAKEAGEREAAASSMTAGVHEAQA |  | binds |
| DISC1 598-854 (C698S/C762S/C782S/C844S) (domain or fragment, human, UniProt Q9NRI5-1 598-854, looked up, DISC1, human, residues 598-854; also called WT*; pseudo-WT variant; source: E. coli BL21 (DE3), purified (Ni-NTA, SEC)) GNHFFTAKDLTEEIRSLTSEREGLEGLLSKLLVLSSRNVKKLGSVKEDYNRLRREVEHQETAYETSVKENTMKYMETLKNKLCSCKCPLLGKVWEADLEASRLLIQSLQLQEARGSLSVEDERQMDDLEGAAPPIPPRLHSEDKRKTPLKVLEEFKTHLIPSLHSAGGEQKEESYILSAELGEKSEDIGKKLLYLEDQLHTAIHSHDEDLIQSLRRELQMVKETLQAMILQLQPAKEAGEREAAASSMTAGVHEAQA |  | binds |
| DISC1 598-854 C684S/C698S/C762S/C782S/C844S (domain or fragment, human, UniProt Q9NRI5-1 598-854, looked up, DISC1, human, residues 598-854; source: E. coli BL21 (DE3), purified (Ni-NTA, SEC)) GNHFFTAKDLTEEIRSLTSEREGLEGLLSKLLVLSSRNVKKLGSVKEDYNRLRREVEHQETAYETSVKENTMKYMETLKNKLCSCKSPLLGKVWEADLEASRLLIQSLQLQEARGSLSVEDERQMDDLEGAAPPIPPRLHSEDKRKTPLKVLEEFKTHLIPSLHSAGGEQKEESYILSAELGEKSEDIGKKLLYLEDQLHTAIHSHDEDLIQSLRRELQMVKETLQAMILQLQPAKEAGEREAAASSMTAGVHEAQA |  | binds |
